Source: patent US20210079074A1 (Alector, published 2021)
Where a chain is given by its changes, count along the chain named. Like-named read-outs stand apart in the source and are kept apart here. Values belong to the binder of their own block, whether it stands above or below them.

Key:
[1] = biological target: T1, huMS4A4A-ECL2 free-peptide (human); assay: peptide ELISA, murine antibody
T1 construct: synthetic, free or BSA-conjugated, coated on the plate; also called human MS4A4A ECL2 peptide; huMS4A4A-ELC2 free-peptide
T1 peptide: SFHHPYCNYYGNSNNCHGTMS
Experimental: Coated plates were then blocked with ELISA diluent (PBS+0.5% BSA+0.05% Tween20) for 1-hour, washed 3×300 μL in PBST (PBS+0.05% Tween20, Thermo Cat#28352), and then the antibodies were added to the plate ([…]). After 30 mins incubation (room temperature, with shaking), the plates were washed 3×300 μL in PBST. […] After a final set of washes (3×300 μL in PBST), 50 μL of TMB substrate (BioFx Cat#TMBW-1000-01) was added and the reaction was then quenched after 5-10 mins with 50 μL of stop solution (BioFx Cat#BSTP-1000-01). The quenched reaction wells were detected for absorbance at […] with a BioTek Synergy Microplate Reader using GENS 2.04 software.

[2] = biological target: T2, negative control polypeptide JS10; assay: ELISA, biotin-antigen on streptavidin plate
T2 construct: negative control for JS5 and JS6; also called JS10.His
Experimental: (§1) Anti-MS4A4A antibodies of the present disclosure were tested for their ability to bind to the different recombinant MS4A4A soluble polypeptides, as described in Example 2, as follows. Nucleic acid encoding the VH and VL domains of humanized anti-MS4A4A antibodies of the present disclosure were cloned into pcDNA3.4 vector which contains either the human IgG1 heavy chain constant domain or human kappa constant domain. The humanized anti-MS4A4A antibodies were expressed in Expi293 cells and were purified by Mab select antibody purification resin (GE Healthcare Life Science, cat#17519902) following the manufacture's protocol. ELISA was performed to measure binding of anti-MS4A4A antibodies of the present disclosure the recombinant MS4A4A soluble polypeptides. 1 μg/ml biotinylated antigens were preincubated on the streptavidin-coated ELISA plates (Thermo Scientific, cat#PI15120) for 1 hour. Plates were washed 3 times, followed by the addition of antibodies (1 μg/ml, 0.33 μg/ml, and 0.11 μg/ml antibodies. Plates were incubated at room temperature with shaking for 1 hr, washed 3 times, then 1/2500 dilution of HRP conjugates goat anti human kappa antibodies added (SigmaAldrich cat#. A7164-1ML).

[3] = biological target: T3, negative control polypeptide JS4; assay: ELISA, biotin-antigen on streptavidin plate
T3 construct: negative control for JS1; also called JS4.His
Experimental: as §1

[4] = biological target: T4, recombinant MS4A4A soluble polypeptide JS5; assay: ELISA, biotin-antigen on streptavidin plate
T4 construct: also called JS5.His
Experimental: as §1

[5] = biological target: T5, recombinant MS4A4A soluble polypeptide JS6; assay: ELISA, biotin-antigen on streptavidin plate
T5 construct: also called JS6.His
Experimental: as §1

[6] = biological target: T6, recombinant MS4A4A soluble polypeptide JS1; assay: ELISA, biotin-antigen on streptavidin plate
T6 construct: also called JS1.His; loop grafted antigen
Experimental: as §1

[7] = biological target: T7, human MS4A4A (human, UniProt Q96JQ5 1-239); assay: FACS, U937-huMS4A4A, 5 ug/ml
Experimental: (§2) Anti-MS4A4A antibodies tested were either mouse IgGs purified from hybridoma supernatant or human IgG1 Fc chimeras produced recombinantly in Expi293 cells. Affinity binding to cells was determined as follows. Briefly, cells were harvested, washed, and labeled with Aqua Live/Dead for viability discrimination. After a wash with PBS, 2×10\hat{ }4 cells were aliquoted per well in 96-well U-bottom plates and incubated with 50 μL of purified anti-MS4A4A antibody at various concentrations (3× dilutions starting at 10 μg/mL) in FACS buffer (PBS+2% FBS+1 mM EDTA). After this primary incubation, the supernatant was removed via centrifugation, washed 2× with 150 μL of ice-cold FACS buffer, and incubated with the appropriate secondary antibody on ice for 15 minutes. Following the secondary antibody incubation, the cells were again washed 2× with ice-cold FACS buffer and resuspended in a final volume of 200 μL of FACS buffer. Flow cytometry analysis was performed on a FACSCanto system (BD Biosciences). Binding data was expressed as Median Fluorescent Intensity (MFI).
(§3) These experiments were performed using anti-MS4A4A antibodies at a concentration of 5 μg/ml and were assayed for cell binding by flow cytometry.

[8] = biological target: T7, human MS4A4A; assay: FACS, U937-huMS4A4A, 5 ug/ml; remark: listed apart in the source
Experimental: as §2, §3

[9] = biological target: T4, recombinant MS4A4A soluble polypeptide …; assay: ELISA, 1 ug/ml antibody
Experimental: as §1

[10] = biological target: T4, recombinant MS4A4A soluble polypeptide …; assay: ELISA, 0.33 ug/ml antibody
Experimental: as §1

[11] = biological target: T4, recombinant MS4A4A soluble polypeptide …; assay: ELISA, 0.11 ug/ml antibody
Experimental: as §1

[12] = biological target: T8, FcγRIIa receptor (H131 variant) (UniProt P12318 34-317, limits assumed); assay: cell-based or functional assay
T8 sequence (looked up): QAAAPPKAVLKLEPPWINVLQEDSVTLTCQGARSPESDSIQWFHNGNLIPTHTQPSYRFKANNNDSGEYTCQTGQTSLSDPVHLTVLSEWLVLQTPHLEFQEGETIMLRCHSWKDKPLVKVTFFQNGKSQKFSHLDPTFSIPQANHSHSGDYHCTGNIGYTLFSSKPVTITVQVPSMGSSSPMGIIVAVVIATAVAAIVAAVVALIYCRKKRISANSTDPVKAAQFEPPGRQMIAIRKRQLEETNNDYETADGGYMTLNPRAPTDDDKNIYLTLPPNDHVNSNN

[13] = biological target: FcγRIIIa receptor (V158 variant) (UniProt P08637 17-254); assay: cell-based or functional assay
Sequence of FcγRIIIa receptor (V158 variant) (P08637 other isoform, or with tags, fused parts or gaps mutant limits assumed): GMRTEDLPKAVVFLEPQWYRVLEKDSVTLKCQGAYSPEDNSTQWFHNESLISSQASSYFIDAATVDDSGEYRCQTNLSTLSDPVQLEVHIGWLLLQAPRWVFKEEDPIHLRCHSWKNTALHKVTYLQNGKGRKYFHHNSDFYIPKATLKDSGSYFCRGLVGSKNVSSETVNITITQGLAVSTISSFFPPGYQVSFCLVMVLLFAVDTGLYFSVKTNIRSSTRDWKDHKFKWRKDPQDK

[14] = biological target: T6, recombinant MS4A4A soluble polypeptide …; assay: ELISA, 1 ug/ml antibody
Experimental: as §1

[15] = biological target: T4, recombinant MS4A4A soluble polypeptide …; assay: ELISA, 0.4 ug/ml antibody

binding result [1]: binds
ELISA OD [2]: 0.063
ELISA OD [3]: 0.091
ELISA OD [4]: 1.12
ELISA OD [5]: 1.26
ELISA OD [6]: 1.38
MFI [7]: 648
B1: anti-MS4A4A antibody 4A-25 (antibody, V domains shown)
VH: QVTLKESGPGILQPSQTLSLTCSFSGFSLRTSDMGVGWVRQPSGEGLEWLADIWWDDNKYYNPSLKSRLTISKDTSSNQVFLKITSVDTADTATYYCARRANYGNLFDYWGQGTAVTVSS
VL: DIVMTQSLKFMSTSVGDRVSITCKASQNVRSAVAWYQQKPGQSPKVLIYWASNRHTGVPDRFTGSGSGTDFTLTISNVQSEDLADYFCLQHWNYLTFGSGTKLEIK
notes: murine parental; mFc = murine Fc; also called 4A-25.mFc

MFI [8]: 41800
ELISA OD [9]: 1.26
ELISA OD [10]: 1.05
ELISA OD [11]: 0.741
luminescence, ADCP reporter, 3.048316 ng/mL [12]: 48
luminescence, ADCP reporter, 9.144947 ng/mL [12]: 54
luminescence, ADCP reporter, 27.43484 ng/mL [12]: 80
luminescence, ADCP reporter, 82.30453 ng/mL [12]: 64
luminescence, ADCP reporter, 246.9136 ng/mL [12]: 98
luminescence, ADCP reporter, 740.7407 ng/mL [12]: 85
luminescence, ADCP reporter, 2,222.222 ng/mL [12]: 128
luminescence, ADCP reporter, 6,666.667 ng/mL [12]: 403
luminescence, ADCP reporter, 20,000 ng/mL [12]: 455
luminescence, ADCC reporter, 3.048316 ng/mL [13]: 346
luminescence, ADCC reporter, 9.144947 ng/mL [13]: 367
luminescence, ADCC reporter, 27.43484 ng/mL [13]: 473
luminescence, ADCC reporter, 82.30453 ng/mL [13]: 839
luminescence, ADCC reporter, 246.9136 ng/mL [13]: 2060
luminescence, ADCC reporter, 740.7407 ng/mL [13]: 4350
luminescence, ADCC reporter, 2,222.222 ng/mL [13]: 5130
luminescence, ADCC reporter, 6,666.667 ng/mL [13]: 4890
luminescence, ADCC reporter, 20,000 ng/mL [13]: 4400
B2: anti-MS4A4A antibody 4A-313 wildtype (WT) huIgG1 (antibody)
heavy: not shown
light: EIVLTQSPATLSLSPGERATLSCRASESVDNYGVSRMNWYQQKPGQAPRLLIYGASNQGSGIPARFSGSGSGTDFTLTISSLEPEDFAVYYCQQSKEVPPTFGGGTKVEIKRTVAAPSVFIFPPSDEQLKSGTASVVCLLNNFYPREAKVQWKVDNALQSGNSQESVTEQDSKDSTYSLSSTLTLSKADYEKHKVYACEVTHQGLSSPVTKSFNRGEC
notes: also called 4A-313 WT huIgG1; 4A-313.WT

ELISA OD [2]: 0.092
ELISA OD [3]: 0.098
ELISA OD [4]: 0.099
ELISA OD [5]: 0.105
ELISA OD [6]: 0.146
MFI [7]: 382
B3: anti-MS4A4A antibody 4A-18 (antibody, V domains shown)
VH: QVQLQQPGTELVKPGASVKLSCKASGYTFTSYWIHWVKQRPGQGLEWIGNINPTNGGTNYNERFKSKATLTVDKSSSTAYMQLSSLTSEDSAVYYCARAYYYGSSLFAYWGQGTLVTVSS
VL: DIVMTQSQKFMSTTVGDRVSITCKASQNVGTAVAWSQQKPGQSPKLLIYSASYRHTGVPDRFTGSGSGTDFTLTITNMQSEDLADYFCQQYSTYPWTFGGGTKLEIK
notes: murine parental; tested as mouse IgG1 or as human IgG1 Fc chimera (hFc), told under assay; also called 4A-18.hFc

binding result [1]: binds
ELISA OD [2]: 0.086
ELISA OD [3]: 0.11
ELISA OD [4]: 1.62
ELISA OD [5]: 1.71
ELISA OD [6]: 1.74
B4: anti-MS4A4A antibody 4A-214 (antibody, V domains shown)
VH: EVKLEESGGGLVQPGRSMKLSCVASGFTFSNYWMNWVRQSPEKGLEWVAEIRLKSNNYATHYAESVKGRFTISRDDSKSSVYLQMNNLRAEDTGIYYCSSMIIVDYWGQGTTVTVSS
VL: DIVLTQSPASLTVSLGQRATISCRASQSVSSSTYSYLHWYQQRPGQPPKLLIKYASNLESGVPARFSGSGSGTVFTLNIHPVEEEDTATYYCQHSWEIPLTFGAGTKLEMK
notes: murine; mFc = murine Fc; also called 4A-214.mFc

MFI [8]: 24400
ELISA OD [9]: 0.128
OD450 [14]: 0.127
ELISA OD [10]: 0.103
ELISA OD [11]: 0.091
MFI [7]: 113
B5: anti-MS4A4A antibody 4A-302 (antibody, human IgG1, V domains shown)
VH: QVQLVQSGAEVKKPGASVKVSCKASGYTFTNYWMQWVRQAPGQGLEWMGATHPGHGDTRYAQKFQGRVTMTRDTSTSTVYMELSSLRSEDTAVYYCAREEVYYGFRSYWYFDVWGRGTLVTVSS
VL: EIVLTQSPATLSLSPGERATLSCRASESVDNYGVSFMNWYQQKPGQAPRLLIYGASNQGSGIPARFSGSGSGTDFTLTISSLEPEDFAVYYCQQSKEVPPTFGGGTKVEIK
notes: human IgG1/kappa

MFI [8]: 11600
OD450 [15]: 0.939
B6: anti-MS4A4A antibody 4A-350 (antibody, V domains shown)
VH: QVQLVQSGSELKKPGASVKVSCKASGYIFTSYGLSWVRQAPGQGLEWMGWINTYSGVPTYAQGFTGRFVFSLDTSVSTAYLQISSLKAEDTAVYYCARTLADYWGQGTLVTVSS
VL: DVVMTQSPLSLPVTLGQPASISCKSSQSLLYSDGKTYLSWFQQRPGQSPRRLIYLVSKLDSGVPDRFSGSGSGTDFTLKISRVEAEDVGVYYCWQGIDFHQTFGGGTKVEIK
notes: full human IgG

MFI [8]: 16700
ELISA OD [9]: 1.04
ELISA OD [10]: 1.03
ELISA OD [11]: 0.83
OD450 [15]: 0.977
B7: anti-MS4A4A antibody 4A-376 (antibody, V domains shown)
VH: B6 VH with T99S, L100M
VL: B6 VL with Q27R
notes: full human IgG

MFI [8]: 12200
ELISA OD [9]: 0.953
ELISA OD [10]: 0.898
ELISA OD [11]: 0.816
OD450 [15]: 0.99
B8: anti-MS4A4A antibody 4A-351 (antibody, V domains shown)
VH: B6 VH
VL: B6 VL with Q27R
notes: full human IgG

MFI [8]: 10100
OD450 [15]: 0.852
B9: anti-MS4A4A antibody 4A-369 (antibody, V domains shown)
VH: B6 VH with I28T, V37I, L100M, A101V
VL: B6 VL with D98R
notes: full human IgG

MFI [8]: 8820
ELISA OD [9]: 0.997
OD450 [14]: 1.91
ELISA OD [10]: 0.851
ELISA OD [11]: 0.677
OD450 [15]: 0.821
MFI [7]: 324
B10: anti-MS4A4A antibody 4A-332 (antibody, human IgG1, V domains shown)
VH: B6 VH with T99S, A101V
VL: B6 VL
notes: humanized 4A-21; human IgG1/kappa

MFI [8]: 12100
OD450 [15]: 0.901
B11: anti-MS4A4A antibody 4A-358 (antibody, V domains shown)
VH: B6 VH
VL: B6 VL with D98R
notes: full human IgG

MFI [8]: 10000
OD450 [15]: 0.908
B12: anti-MS4A4A antibody 4A-362 (antibody, V domains shown)
VH: B6 VH
VL: B6 VL with K58R
notes: full human IgG

MFI [8]: 11900
OD450 [15]: 0.907
B13: anti-MS4A4A antibody 4A-373 (antibody, V domains shown)
VH: B6 VH with A101V
VL: B6 VL with Q27R
notes: full human IgG

MFI [8]: 10300
OD450 [15]: 0.797
B14: anti-MS4A4A antibody 4A-360 (antibody, V domains shown)
VH: B6 VH
VL: B6 VL with S26G, K58R
notes: full human IgG
